Earlier results as cited in PMC5559722.
Like-named read-outs stand apart in the source and are kept apart here. One block for each substance: values may come before it.

Legend:
RNF31 PUB (Homo sapiens) = RNF31 PUB (Homo sapiens) (UniProt Q96EP0)
p97 N-domain [1] = target: p97 N-domain (UniProt P55072)
p97 N-domain [2] = target: p97 N-domain (UniProt P55072); remark: listed apart in the source
p97 N-domain [3] = target: p97 N-domain (UniProt P55072); remark: listed apart in the source
[4] = target: p97 C-terminal peptide (Homo sapiens) (UniProt P55072)
p97 N-domain [5] = target: p97 N-domain (UniProt P55072); assay: ITC

Substance: p47 UBX (from UniProt Q9UNZ2)
- Kd (p97 N-domain [1]): 1 µM

Substance: NPL4 UBXL (from UniProt Q8TAT6)
- Kd (p97 N-domain [2]): 18 µM

Substance: FAF1 UBX (from UniProt Q9UNN5)
- Kd (p97 N-domain [3]): 1 µM

Substance: RNF31 PUB (from UniProt Q96EP0)
- Kd [4]: 50 µM

The remaining lines, values ahead:

- Kd (RNF31 PUB (Homo sapiens)): 0.3 µM
Substance: OTULIN (from UniProt Q96BN8)

- Kd (p97 N-domain [5]): 0.7 µM
Substance: OTU1 UBXL (from UniProt Q5VVQ6)
